Measured values as given in patent US20090282582A1, “ENVIRONMENTAL STRESS RESPONSIVE PROMOTER AND METHOD OF TISSUE-SPECIFIC GENE EXPRESSION USING THE SAME” (RIKEN, priority 2006, published 2009).

Columns and labels:
[1] = tested on: Arabidopsis thaliana (columbia ecotype) plant body; assay: full-length cDNA microarray analysis of gene expression levels after environmental stress application; settings: in vivo
How it was run: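 Three-week-old Arabidopsis grown at 22° C. on a 16 h light/8 h dark cycle were stressed by 4° C. cold, 2 h open-plate dehydration, or root application of MS medium containing 250 mM NaCl or 100 μM ABA. Total RNA/mRNA from stressed and unstressed plants was reverse transcribed with Cy3/Cy5 dUTP and hybridized to full-length cDNA microarrays.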

[2] = tested on: transgenic Arabidopsis thaliana plant body (luciferase reporter gene); assay: luciferase assay of promoter::LUC transgenic plants after environmental stress application; assay type: in vivo; settings: for activity to induce gene expression compared with other promoters: in vivo; for Tissue allowing specific induction: summary over stress types
How it was run: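 Arabidopsis lines carrying promoter::luciferase, 10 days after sowing on MS agar, sprayed with 1 mM luciferin (0.01% Triton-X), 5 min dark, imaged by ARGUS before stress. Stresses: 4° C, 2 h air dehydration, 250 mM NaCl or 100 μM ABA to roots; luminescence at 2, 5, 10 h.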

Molecule	Environmental stress type to which the promoter responds [1]	Tissue in which specific induction of expression is realized ([2]; Salt stress (250 mM NaCl))	Tissue in which specific induction of expression is realized ([2]; Salt stress (250 mM NaCl), listed as promoter of RAFL09-07-M01)	activity to induce gene expression compared with other promoters [2]	Tissue allowing specific induction [2]	Tissue in which specific induction of expression is realized ([2]; ABA stress (100 μM ABA))	Tissue in which specific induction of expression is realized ([2]; ABA stress (100 μM ABA), listed as promoter of RAFL08-17-O07)
Promoter of RAFL09-07-M01: environmental stress responsive promoter DNA, SEQ ID NO: 7, upstream of At4g20830 (protein containing FAD-binding domain) (nucleic acid, listed as Arabidopsis thaliana) DNA: AGGTGCAGGAGATTGAATCGAAGCTTCGTTTATAAAACAATGTACATAGTTGTTTAAAGTCTTAAAGTTGGACTTTTCTTTTGCTCAGCCCCACAAACCCAATTGGATTATAATACCGACGCCGACCAATCAATGCTACGACCATTGACTTATAAAACATACATCGGACACACACAAAAAAAAACTACACTTTTTGTATCAGCAATCTTTTTAGTTATTTGTTTTCAGTTATATAAATCAATGTTTGTGTTTTCTAATAACAGTTATTAGTATGCTAGTGATGCATGGTTAAAAAAAAAAAAAGAAATTTCAAATATATATTTTAATTTGCATTATGTAAAATATTTTAAAAATAAGTCCCTAGTACCAATGGAGTGTTTTTGTTTAAGCTACAAGTGAATTATAATACGTAGTAATCTTGATTCAAATGGAAAGATTTACCATGTGGGTCTATACCAAAACCGTGTCCTTTTTCATATGTATGAATCTCTAATAGTTGCTTCTTTTGACTAGAATAATTTGTAAAGTAACTCCTAATTCATAAATATTGAAGATTAGTCTGATTTATTATTAATATGCAAATCTCTGATTAATAAGAAATAAATTATAATAGAAATATTGATGTGTACTGATCATCTTTTAATAAATGTTTGAGACTACAAATACTATAATGAATCAAATGAACATAAATGTATAGATGAACTGAATAAAATTCCAGATACACCTTGAATTAAATATGTATTCATAGTATTTTTTTTTAAAATGAAATCTGGATTTTAAATCCTTATTATTCAAAAAAATCTTCTCCTTTGATATTTTTGCTATAACAAATTAAAATAAAATCTGTAATCACTAATCATATCCCTTAACTCCCTTTAATATCTTTTGTTGACCAAAACAAATATTTTTTTGTTATATGCAACGAATAAAAAAACATTGAAAGTACTTTCCAAAAACAAAACACGTCTTCTTCTCCCTGCGGTTATAAATAGACACGGATAAGTACAAAGAACAGAGGAACACGAGACCCAAGAAAAAGATCTCAAA	Dehydration and salt	Stem and leaf tissue and root tissue	stem and leaf tissue and root tissue	lower than that of other promoters	Stem and leaf tissue and root tissue		
Promoter of RAFL08-17-O07: environmental stress responsive promoter DNA, SEQ ID NO: 8, upstream of At2g29450 (glutathione S-transferase) (nucleic acid, listed as Arabidopsis thaliana) DNA: CGGTGGCAAAACAATTGGATTTTTGGACTTGGTCGCAGGAAGTATGATCCCGTTTTGTCTTGCTCGAGGTTGGGAAGGTATGGGAATTGATATGATTCCAGAGGAAAAGTTTCCAGAGCTAAACAGATGGATCAAAAATTTGAAAGAAATTGAGATCGTGAGAGAATGTATTCCTCCTAGAGAGGAACAAATTGAGCATATGAAGAAAGTTGTAGAAAGAATCAAATCAGCCTAAGAGACAACAATGATACTCTTCGATCAGTAGATGTTAACTATATGTTTGTGTAATCTTGTTATAATAGTTTGTATGAACAATAAATGAAACATTTGTATGAACAATTAGTGTTTTTACTAAATTCTAATGTCAATTAATTATTATAAACATTTTAAATGTAGTAGTATTCAATTTCTTACAAATCATAAGAAATTGGTTCATAAACCTGGAGTTTTCATATGAAAGAAAAGTAGATAAAAGCTATAATTTAGTCAAACCATCCTTCTTAATAAAACCACAACTATGATTAAATGTGAACATGTATTTCGACACGTAAGAAGTTGTGTAAACAGAGGAAAGTACAACGGACATGTGGGTCTATTTGTTGCGGCACAATATAACAAATTTCTTTAGTATATTTTTAGTATCGTGAGGTGGTGAGTCTTGTAACCATAGAAAATTCACCGATACTTTATAACATTGTTGGAAGGAAAATTCAGCAAACAAGTTCGTAGATGGAGAAACGGAAAAACCAACGCCTATTATAACAACAACATTTTTAATATATGCCAAAAGGAACATCAAATAACAGATTAGTACTAATTCTTTTTTTATAGCTCAGACTATAGAGTTGTTTGTTTTCTTGGGCGTCAATATAACAAACGAGAATGACAAATGGTTTTAAAGCTGTTGATGTTTCATACACAGACAAAATGGATCAATTATGAAGAACCACGATAAAGTGATGGGTATAATTGGGGAAGCAGAAGAAATTCTTGACGAAGCATGGGGTTGTCTTCAGAAAATGAATGGATCAAGTCAAGGTACACATGCTCCAGGGATAAGGCAAGGTTAGGAATTAGGACACATCTCCACTTACTAAAAAAGAGATAAAAAAAAATTATAAAGGGAACGTTATAAATATGTTGTAAAGTCAACATCTGTTTCCTTCTAGACTCTTCGCATTTACATCACACTGCCGACCATATAAAACGGCAAAGTTCGTCGTCGTTTTATCACAAGACCATCAACACCATAAGGCTATAAATCCAAGCTAAAAGGTAGTGATTAACTCCACAAAACCAGAAAAAACTACATTTCTAACATATAGAAGAAACAGAGAAAAAGAGAGAGAGACCCCTA	Dehydration and salt			lower than that of other promoters	Root tissue	Root tissue	root tissue
